This data set concerns the molecule itself. Put plainly: SEC. For orientation: Size exclusion chromatography separates by hydrodynamic size, large species first.

B1: recombinant ZmWHY1 (full-length mature ZmWHY1, lacking the transit peptide) (natural protein)
chain: ASSRKAAAVPACPVASPRHSDYFDPRAPPPPRGDGGYGRPPNGAQDGRVFTSYSIYKGKAALSFDPRPPLFVPLDSGAYKVAKEGFVLLQFAPAVATRQYDWTRKQVFSLSVWEIGTLLTLGPTDSCEFFHDPFKGRSEEGKVRKVLKIEPTPDGNGRFFNLSVQNRLINVDESIYIPITKGEFAVIVSTFNYIIPHLMGWSTFVSSIKPEESRPYSRPQSTSEYEWRR
For orientation: stoichiometry N means the number of molecules, sites or subunits per partner or assembly. For B1, the “stoichiometry N” value is 4.

The values are drawn from publication PMC2532728 (Nucleic Acids Research, 2008).
